This assay deals with Insulin (Sigma-Aldrich, 19278) (UniProt P01308). Nature of the assay: non-specific binding ELISA, insulin coated at 5 µg/mL, antibody at 100 nM. A general note: In an ELISA, binding on a coated surface is turned into a signal by an enzyme label.
Sequence of Insulin (Sigma-Aldrich, 19278) (P01308 25-54 limits assumed, chain 1 of 2): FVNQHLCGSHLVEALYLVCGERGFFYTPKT
Sequence of Insulin (Sigma-Aldrich, 19278) (P01308 90-110 limits assumed, chain 2 of 2): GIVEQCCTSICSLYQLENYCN

B1: v29452 humanized anti-NaPi2b antibody (H1L3) (antibody, human IgG1, kappa, V domains shown)
VH: QVQLVQSGAEVKKPGASVKVSCKASGFTFTSYNVHWVRQAPGQGLEWMGAISPGNGDLSYAQKFQGRVTMTRDTSTSTVYMELSSLRSEDTAVYYCARGRTGMGAVDYWGQGTLVTVSS
VL: DVQMTQSPSSLSASVGDRVTITCRASQDVYSYLNWYQQKPGKAVKLLIYYTSRLQSGVPSRFSGSGSGTDYTLTISSLQPEDIATYYCQQYNIFPWTFGQGTKLEIKR
As for B1, the NS-ELISA binding score (ratio of signal between antibody-treated and untreated) was 1.03.

(Values after patent publication US20250277030A1, “ANTI-NAPI2B ANTIBODIES AND METHODS OF USE” (Zymeworks BC Inc., priority 2022, published 2025).)
